Biological target: human CXCR2 (human) (UniProt P25025)
Experiment: cell-based or functional assay

Sequence of human CXCR2 (human) (P25025 whole entry): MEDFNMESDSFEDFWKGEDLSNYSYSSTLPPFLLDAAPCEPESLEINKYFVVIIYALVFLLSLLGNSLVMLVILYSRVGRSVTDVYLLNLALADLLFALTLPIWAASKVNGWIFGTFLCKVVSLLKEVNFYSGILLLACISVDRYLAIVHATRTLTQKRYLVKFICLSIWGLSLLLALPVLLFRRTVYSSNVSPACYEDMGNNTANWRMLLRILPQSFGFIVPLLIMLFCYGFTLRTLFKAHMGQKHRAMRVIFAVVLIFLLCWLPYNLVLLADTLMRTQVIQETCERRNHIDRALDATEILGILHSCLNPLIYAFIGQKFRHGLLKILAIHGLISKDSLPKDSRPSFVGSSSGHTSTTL
Sequence of human CXCL6 (P80162 38-114 limits assumed): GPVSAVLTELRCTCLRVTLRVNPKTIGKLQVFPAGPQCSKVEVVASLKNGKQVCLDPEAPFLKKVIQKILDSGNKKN
Sequence of human CXCL8 (P10145 28-99 limits assumed): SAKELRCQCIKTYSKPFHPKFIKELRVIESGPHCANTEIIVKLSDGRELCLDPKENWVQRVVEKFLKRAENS
Sequence of human CXCL2 (P19875 35-107 limits assumed): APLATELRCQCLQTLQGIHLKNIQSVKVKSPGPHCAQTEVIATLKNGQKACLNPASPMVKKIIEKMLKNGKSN
Sequence of human CXCL1 (P09341 35-107 limits assumed): as the sequence (P19875 35-107 limits assumed) above, with P2S, L3V, L20P, K27N, Q48R, M58I, K68N, N69S, G70D counted along it
Sequence of human CXCL5 (P42830 37-114 limits assumed): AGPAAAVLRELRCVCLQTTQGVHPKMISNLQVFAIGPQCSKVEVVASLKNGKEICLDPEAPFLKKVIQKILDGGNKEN
Sequence of human CXCL3 (P19876 35-107 limits assumed): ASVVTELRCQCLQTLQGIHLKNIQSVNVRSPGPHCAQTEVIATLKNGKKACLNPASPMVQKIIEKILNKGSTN

Substance: Antagonist 3 (anti-CXCR2 antibody clone 48311, R&D systems MAB331-500)
- CXCL1 IC50, calcium flux: 30.7 nM
- CXCL1 IC50, β-arrestin recruitment: 14.8 nM
- CXCL1 Maximal Inhibition %, calcium flux: 37%
- CXCL1 Maximal Inhibition %, β-arrestin recruitment: 85%
- CXCL5 IC50, β-arrestin recruitment: 8.12 nM
- CXCL5 Maximal Inhibition %, β-arrestin recruitment: 96%
- CXCL8 Maximal Inhibition %, calcium flux: 18%
- CXCL8 Maximal Inhibition %, β-arrestin recruitment: 82%

Substance: Antagonist 4 (anti-CXCR2 antibody clone 6C6, BD Biosciences 555932)
- CXCL1 IC50, calcium flux: 1.29 nM
- CXCL1 IC50, β-arrestin recruitment: 1.47 nM
- CXCL1 Maximal Inhibition %, calcium flux: 93%
- CXCL1 Maximal Inhibition %, β-arrestin recruitment: 96%
- CXCL5 IC50, β-arrestin recruitment: 0.75 nM
- CXCL5 Maximal Inhibition %, β-arrestin recruitment: 99%
- CXCL8 IC50, β-arrestin recruitment: 1.01 nM
- CXCL8 Maximal Inhibition %, calcium flux: 1%
- CXCL8 Maximal Inhibition %, β-arrestin recruitment: 94%

Substance: human CXCL1 (from UniProt P09341 35-107) (ligand)
- EC50 mean, Tango assay: 2.3 nM
- EC50 mean, calcium flux assay: 2.62 nM

Substance: human CXCL2 (from UniProt P19875 35-107) (ligand)
- EC50 mean, Tango assay: 33.3 nM
- EC50 mean, calcium flux assay: 37 nM

Substance: human CXCL3 (from UniProt P19876 35-107) (ligand)
- EC50 mean, Tango assay: 11.9 nM
- EC50 mean, calcium flux assay: 12.2 nM

Substance: human CXCL5 (from UniProt P42830 37-114) (ligand)
- EC50 mean, Tango assay: 97.7 nM
- EC50 mean, calcium flux assay: 39.2 nM

Substance: human CXCL6 (from UniProt P80162 38-114) (ligand)
- EC50 mean, Tango assay: 9.4 nM
- EC50 mean, calcium flux assay: 28.9 nM

Substance: human CXCL8 (from UniProt P10145 28-99) (ligand)
- EC50 mean, Tango assay: 2.2 nM
- EC50 mean, calcium flux assay: 3.2 nM

Source: patent US20240301076A1
